Numbering of substitutions follows the chain as printed. Names and notes keep the numbering of the source.
T1: human beta-Klotho (Homo sapiens, UniProt Q86Z14)
T1 sequence (Q86Z14 1-1044): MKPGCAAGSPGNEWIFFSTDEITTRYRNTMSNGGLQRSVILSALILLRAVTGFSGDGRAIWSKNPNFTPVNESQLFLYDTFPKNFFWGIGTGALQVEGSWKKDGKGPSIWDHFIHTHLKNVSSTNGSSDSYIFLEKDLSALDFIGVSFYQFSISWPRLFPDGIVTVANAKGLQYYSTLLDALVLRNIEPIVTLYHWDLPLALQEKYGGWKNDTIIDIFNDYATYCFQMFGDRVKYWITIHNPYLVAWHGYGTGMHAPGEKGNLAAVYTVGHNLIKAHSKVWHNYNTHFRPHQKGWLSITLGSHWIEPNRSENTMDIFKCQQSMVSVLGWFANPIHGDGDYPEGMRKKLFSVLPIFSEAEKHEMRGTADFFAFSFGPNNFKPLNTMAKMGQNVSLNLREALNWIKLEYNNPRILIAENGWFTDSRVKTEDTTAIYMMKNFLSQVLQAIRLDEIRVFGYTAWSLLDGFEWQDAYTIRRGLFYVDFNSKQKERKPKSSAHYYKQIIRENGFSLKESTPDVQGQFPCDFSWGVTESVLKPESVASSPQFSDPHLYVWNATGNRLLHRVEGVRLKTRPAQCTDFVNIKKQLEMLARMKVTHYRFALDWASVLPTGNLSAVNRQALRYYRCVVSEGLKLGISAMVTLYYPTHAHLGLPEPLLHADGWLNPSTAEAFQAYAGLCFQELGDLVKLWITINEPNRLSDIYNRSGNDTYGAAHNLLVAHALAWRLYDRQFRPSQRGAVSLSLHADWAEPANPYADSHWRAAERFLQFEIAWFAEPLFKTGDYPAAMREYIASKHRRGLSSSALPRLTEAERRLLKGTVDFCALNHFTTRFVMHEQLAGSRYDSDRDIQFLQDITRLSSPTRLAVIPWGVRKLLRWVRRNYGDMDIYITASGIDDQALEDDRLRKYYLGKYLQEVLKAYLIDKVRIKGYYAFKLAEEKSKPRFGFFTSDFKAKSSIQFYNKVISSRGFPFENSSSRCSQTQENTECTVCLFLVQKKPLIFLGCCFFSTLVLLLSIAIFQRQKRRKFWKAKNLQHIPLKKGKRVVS

B1: Ab0380: IgG4 PE; 16H7 VL (Y48del, D95V, W90F, S1C, S94C); 16H7 VH (M34V, H52S, F54W, I83T, D109E) (antibody)
VH: QVTLKESGPVLVKPTETLTLTCTVSGFSLNNARVGVSWIRQPPGKALEWLASIWSNDEKSYSTSLKSRLTISKDTSKSQVVLTMTNMDPVDTATYYCARSVVTGGYYYEGMDVWGQGTTVTVSS
light: CYVLTQPPSVSVAPGQTARITCGGNNIGSESVHWYQQKPGQAPVLVVDDSDRPSGIPERFSGSNSGNTATLTISRVEAGDEADYYCQVFDGNCVHVVFGGGTKLTVLGQPKANPTVTLFPPSSEELQANKATLVCLISDFYPGAVTVAWKADGSPVKAGVETTKPSKQSNNKYAASSYLSLTPEQWKSHRSYSCQVTHEGSTVEKTVAPTECS
B2: Ab0402: IgG4 PE; 16H7 VL (Y48del, D95A, W90F, S94C, H96C); 16H7 VH (M34V, H52W, I83T, D109E) (antibody)
VH: B1 VH with S52W, W54F
light: B1 light with C1S, V94A, H95C
B3: Ab0405: IgG4 PE; 16H7 VL (Y48del, D95T, W90F); 16H7 VH (M34V, H52S, F54W, I83T, D109E) (antibody)
VH: B1 VH
light: B1 light with C1S, C93S, V94T
B4: Ab0396: IgG4 PE; 16H7 VL (Y48del, D95A, W90F); 16H7 VH (M34V, H52S, F54W, I83T, D109E) (antibody)
VH: B1 VH
light: B1 light with C1S, C93S, V94A
B5: Ab0392: IgG4 PE; 16H7 VL (Y48del, D95S, W90F); 16H7 VH (M34V, H52W, I83T, D109E) (antibody)
VH: B1 VH with S52W, W54F
light: B1 light with C1S, C93S, V94S
B6: Ab0389: IgG4 PE; 16H7 VL (Y48del, D95S, W90F, S1C, S94C); 16H7 VH (M34V, H52S, F54W, I83T, D109E) (antibody)
VH: B1 VH
light: B1 light with V94S
B7: Ab0397: IgG4 PE; 16H7 VL (Y48del, D95A, W90F, S1C, S94C); 16H7 VH (M34V, F54W, I83T, D109E) (antibody)
VH: B1 VH with S52H
light: B1 light with V94A
B8: Ab0401: IgG4 PE; 16H7 VL (Y48del, D95A, W90F); 16H7 VH (M34V, H52W, I83T, D109E) (antibody)
VH: B1 VH with S52W, W54F
light: B1 light with C1S, C93S, V94A
B9: Ab0391: IgG4 PE; 16H7 VL (Y48del, D95S, W90F, S94C, H96C); 16H7 VH (M34V, H52S, F54W, I83T, D109E) (antibody)
VH: B1 VH
light: B1 light with C1S, V94S, H95C
B10: Ab0394: IgG4 PE; 16H7 VL (Y48del, D95S, W90F, S1C, S94C); 16H7 VH (M34V, H52W, I83T, D109E) (antibody)
VH: B1 VH with S52W, W54F
light: B1 light with V94S
B11: Ab0403: IgG4 PE; 16H7 VL (Y48del, D95A, W90F, S1C, S94C); 16H7 VH (M34V, H52W, I83T, D109E) (antibody)
VH: B1 VH with S52W, W54F
light: B1 light with V94A
B12: Ab0381: IgG4 PE; 16H7 VL (Y48del, D95V, W90F, S94C, H96C); 16H7 VH (M34V, F54W, I83T, D109E) (antibody)
VH: B1 VH with S52H
light: B1 light with C1S, H95C
B13: Ab0399: IgG4 PE; 16H7 VL (Y48del, D95A, W90F, S94C, H96C); 16H7 VH (M34V, F54W, I83T, D109E) (antibody)
VH: B1 VH with S52H
light: B1 light with C1S, V94A, H95C
B14: Ab0383: IgG4 PE; 16H7 VL (Y48del, D95V, W90F); 16H7 VH (M34V, H52W, I83T, D109E) (antibody)
VH: B1 VH with S52W, W54F
light: B1 light with C1S, C93S
B15: Ab0406: IgG4 PE; 16H7 VL (Y48del, D95T, W90F, S1C, S94C); 16H7 VH (M34V, H52S, F54W, I83T, D109E) (antibody)
VH: B1 VH
light: B1 light with V94T
B16: Ab0390: IgG4 PE; 16H7 VL (Y48del, D95S, W90F, S94C, H96C); 16H7 VH (M34V, F54W, I83T, D109E) (antibody)
VH: B1 VH with S52H
light: B1 light with C1S, V94S, H95C
B17: Ab0398: IgG4 PE; 16H7 VL (Y48del, D95A, W90F, S1C, S94C); 16H7 VH (M34V, H52S, F54W, I83T, D109E) (antibody)
VH: B1 VH
light: B1 light with V94A
B18: Ab0400: IgG4 PE; 16H7 VL (Y48del, D95A, W90F, S94C, H96C); 16H7 VH (M34V, H52S, F54W, I83T, D109E) (antibody)
VH: B1 VH
light: B1 light with C1S, V94A, H95C
B19: Ab0404: IgG4 PE; 16H7 VL (Y48del, D95T, W90F); 16H7 VH (M34V, F54W, I83T, D109E) (antibody)
VH: B1 VH with S52H
light: B1 light with C1S, C93S, V94T
B20: Ab0393: IgG4 PE; 16H7 VL (Y48del, D95S, W90F, S94C, H96C); 16H7 VH (M34V, H52W, I83T, D109E) (antibody)
VH: B1 VH with S52W, W54F
light: B1 light with C1S, V94S, H95C
B21: Ab0395: IgG4 PE; 16H7 VL (Y48del, D95A, W90F); 16H7 VH (M34V, F54W, I83T, D109E) (antibody)
VH: B1 VH with S52H
light: B1 light with C1S, C93S, V94A
B22: Ab0382: IgG4 PE; 16H7 VL (Y48del, D95V, W90F, S94C, H96C); 16H7 VH (M34V, H52S, F54W, I83T, D109E) (antibody)
VH: B1 VH
light: B1 light with C1S, H95C

target: T1, human beta-Klotho; assay: SPR off-rate screening of antibody mutants (human beta-Klotho captured by anti-His antibody); assay type: binding; conditions: mean, n=3
Experimental: Screening of antibody mutants for binding to human beta-Klotho was determined in a different SPR assay set up. Human beta-Klotho was affinity captured by an anti-His antibody (from His capture kit, GE Healthcare) that was immobilized to a series S CM5 chip (GE Healthcare) by amine reactive coupling as described above. The antibody samples were used as analytes at 50 nmol/L concentration. Association time was 240 sec and dissociation time was 300 sec. Chip surfaces were regenerated using the regeneration solution supplied with the His capture kit. The off-rates (kd) were determined using single exponential fitting in the Biacore 8K Evaluation Software version 1.1.1.7442 (GE Healthcare).

koff human KLB	Molecule
no binding	B1
no binding	B2
no binding	B3
no binding	B4
no binding	B5
no binding	B6
no binding	B7
no binding	B8
no binding	B9
no binding	B10
no binding	B11
no binding	B12
no binding	B13
no binding	B14
no binding	B15
no binding	B16
no binding	B17
no binding	B18
no binding	B19
no binding	B20
no binding	B21
no binding	B22

From patent publication US20250115669A1, “FGFR1/KLB Targeting Agonistic Antigen-Binding Proteins and Conjugates Thereof with GLP-1R Agonistic Peptides” (SANOFI, priority 2020, published 2025)
